Test results reported in the supplement of paper PMC10899765.

Key:
Details in all cases: 20 nM; 72 h
[1] = system: MCF10A; assay: one-nucleolus phenotype percent effect (relative to siNT 0% and siNOL11 100%); higher = more cells with one nucleolus (ribosome biogenesis inhibition)
Description: (§1)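 After 72 h, cells were fixed and stained with Hoechst and anti-fibrillarin, and nucleoli per nucleus were counted with CellProfiler. Values are plate-adjusted percent effect for the one-nucleolus and 5+ nucleoli phenotypes, normalised to siNT (0%) and to the positive controls siNOL11 or siKIF11 (100%), as the mean of biological triplicates. Percent viability is the nuclei count relative to siNT.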

[2] = system: MCF10A; assay: percent viability (nuclei count relative to siNT); higher = more viable cells
Description: as §1

[3] = system: MCF10A; assay: 5+ nucleoli phenotype percent effect (relative to siNT 0% and siKIF11 100%); higher = more cells with five or more nucleoli
Description: as §1

## UCUGGGCAACAAAGUGAGACCU [hsa-miR-1285-3p]
[1]
  one-nucleolus phenotype percent effect: 20.6%
[2]
  percent viability: 28.8%
[3]
  5+ nucleoli phenotype percent effect: 2.8%

## UCUGGGCACAGGCGGAUGGACAGG [hsa-miR-5189]
[1]
  one-nucleolus phenotype percent effect: 29.3%
[2]
  percent viability: 34.5%
[3]
  5+ nucleoli phenotype percent effect: -2.97%

## UCUGGGGAUGAGGACAGUGUGU [hsa-miR-4700-5p]
[1]
  one-nucleolus phenotype percent effect: 29%
[2]
  percent viability: 35.8%
[3]
  5+ nucleoli phenotype percent effect: -10.2%

## UCUGGGGUCUUGGGCCAUC [hsa-miR-7155-5p]
[1]
  one-nucleolus phenotype percent effect: 34.2%
[2]
  percent viability: 10.2%
[3]
  5+ nucleoli phenotype percent effect: -0.455%

## UCUGGGUGCAGUGGGGGUU [hsa-miR-6776-5p]
[1]
  one-nucleolus phenotype percent effect: 24.4%
[2]
  percent viability: 2.41%
[3]
  5+ nucleoli phenotype percent effect: -32.7%

## UCUGGUAAGAGAUUUGGGCAUA [hsa-miR-4490]
[1]
  one-nucleolus phenotype percent effect: -25.9%
[2]
  percent viability: 54.4%
[3]
  5+ nucleoli phenotype percent effect: 46.4%

## UCUGGUAUGUAGUAGGUAAUAA [hsa-miR-4774-5p]
[1]
  one-nucleolus phenotype percent effect: -25.6%
[2]
  percent viability: 62.8%
[3]
  5+ nucleoli phenotype percent effect: 80.9%

## UCUGGUCCUGGACAGGAGGC [hsa-miR-7152-3p]
[1]
  one-nucleolus phenotype percent effect: -12.8%
[2]
  percent viability: 41.9%
[3]
  5+ nucleoli phenotype percent effect: 18.5%

## UCUGGUGUAUAGCGUUGCUCA [hsa-miR-7978]
[1]
  one-nucleolus phenotype percent effect: 19.2%
[2]
  percent viability: 27.6%
[3]
  5+ nucleoli phenotype percent effect: -4.49%

## UCUGUAGCCUGGGAGCAAUGGGGU [hsa-miR-3137]
[1]
  one-nucleolus phenotype percent effect: 24%
[2]
  percent viability: 13.2%
[3]
  5+ nucleoli phenotype percent effect: -20.3%

## UCUGUAUUCUCCUUUGCCUGCAG [hsa-miR-4742-3p]
[1]
  one-nucleolus phenotype percent effect: 6.5%
[2]
  percent viability: 24.4%
[3]
  5+ nucleoli phenotype percent effect: 3.24%

## UCUGUCAUUUCUUUAGGCCAAUA [hsa-miR-215-3p]
[1]
  one-nucleolus phenotype percent effect: 2.4%
[2]
  percent viability: 39.5%
[3]
  5+ nucleoli phenotype percent effect: -6.58%

## UCUGUGAGACCAAAGAACUACU [hsa-miR-4677-3p]
[1]
  one-nucleolus phenotype percent effect: 23.1%
[2]
  percent viability: 28.6%
[3]
  5+ nucleoli phenotype percent effect: -42.7%

## UCUGUGAUAGAGAUUCUUUGCU [hsa-miR-4679]
[1]
  one-nucleolus phenotype percent effect: -10.8%
[2]
  percent viability: 103%
[3]
  5+ nucleoli phenotype percent effect: 8.51%

## UCUGUGCCCCUACUUCCCAG [hsa-miR-6889-3p]
[1]
  one-nucleolus phenotype percent effect: -15.5%
[2]
  percent viability: 63%
[3]
  5+ nucleoli phenotype percent effect: 16.2%

## UCUGUGCUACUGGAUGAAGAGU [hsa-miR-7157-3p]
[1]
  one-nucleolus phenotype percent effect: -22.7%
[2]
  percent viability: 92.3%
[3]
  5+ nucleoli phenotype percent effect: 36.4%

## UCUGUGCUUCACCCCUACCCAG [hsa-miR-6737-3p]
[1]
  one-nucleolus phenotype percent effect: 3.19%
[2]
  percent viability: 68.8%
[3]
  5+ nucleoli phenotype percent effect: -3.33%

## UCUGUGGAGUGGGGUGCCUGU [hsa-miR-7114-5p]
[1]
  one-nucleolus phenotype percent effect: 15%
[2]
  percent viability: 16%
[3]
  5+ nucleoli phenotype percent effect: 7.56%

## UCUUACUCCCUCAGGCACUG [hsa-miR-550b-3p]
[1]
  one-nucleolus phenotype percent effect: 1.54%
[2]
  percent viability: 31%
[3]
  5+ nucleoli phenotype percent effect: -5.7%

## UCUUCAACCUCAGGACUUGCA [hsa-miR-676-5p]
[1]
  one-nucleolus phenotype percent effect: -20.5%
[2]
  percent viability: 56%
[3]
  5+ nucleoli phenotype percent effect: 37.9%

## UCUUCACCUGCCUCUGCCUGCA [hsa-miR-6754-3p]
[1]
  one-nucleolus phenotype percent effect: -24.7%
[2]
  percent viability: 71.5%
[3]
  5+ nucleoli phenotype percent effect: 15.2%

## UCUUCUCUGUUUUGGCCAUGUG [hsa-miR-942]
[1]
  one-nucleolus phenotype percent effect: -0.685%
[2]
  percent viability: 73.4%
[3]
  5+ nucleoli phenotype percent effect: 12.1%

## UCUUCUUCCUUUGCAGAGUUGA [hsa-miR-4778-3p]
[1]
  one-nucleolus phenotype percent effect: -1.98%
[2]
  percent viability: 77.1%
[3]
  5+ nucleoli phenotype percent effect: 1.95%

## UCUUGAAGUCAGAACCCGCAA [hsa-miR-4635]
[1]
  one-nucleolus phenotype percent effect: 19.8%
[2]
  percent viability: 45.8%
[3]
  5+ nucleoli phenotype percent effect: -29.8%

## UCUUGGAGUAGGUCAUUGGGUGG [hsa-miR-432-5p]
[1]
  one-nucleolus phenotype percent effect: 28.2%
[2]
  percent viability: 34.1%
[3]
  5+ nucleoli phenotype percent effect: -33.5%

## UCUUGUGUUCUCUAGAUCAGU [hsa-miR-581]
[1]
  one-nucleolus phenotype percent effect: -3.72%
[2]
  percent viability: 82.2%
[3]
  5+ nucleoli phenotype percent effect: 2.53%

## UCUUUGGUUAUCUAGCUGUAUGA [hsa-miR-9-5p]
[1]
  one-nucleolus phenotype percent effect: 20.5%
[2]
  percent viability: 54.9%
[3]
  5+ nucleoli phenotype percent effect: -15.1%

## UCUUUUCUUUGAGACUCACU [hsa-miR-627-3p]
[1]
  one-nucleolus phenotype percent effect: -15.6%
[2]
  percent viability: 34.1%
[3]
  5+ nucleoli phenotype percent effect: 21.8%

## UGAAACAUACACGGGAAACCUC [hsa-miR-494]
[1]
  one-nucleolus phenotype percent effect: 34.9%
[2]
  percent viability: 24.5%
[3]
  5+ nucleoli phenotype percent effect: -37.3%

## UGAAACUGGAGCGCCUGGAGGA [hsa-miR-4738-3p]
[1]
  one-nucleolus phenotype percent effect: 26.9%
[2]
  percent viability: 28.6%
[3]
  5+ nucleoli phenotype percent effect: -20.8%

## UGAAGCCAGCUCUGGUCUGGGC [hsa-miR-4786-3p]
[1]
  one-nucleolus phenotype percent effect: 25%
[2]
  percent viability: 29%
[3]
  5+ nucleoli phenotype percent effect: -24%

## UGAAGCGCCUGUGCUCUGCCGAGA [hsa-miR-7706]
[1]
  one-nucleolus phenotype percent effect: -18.1%
[2]
  percent viability: 40.2%
[3]
  5+ nucleoli phenotype percent effect: 12.3%

## UGAAGCUCUAAGGUUCCGCCUGC [hsa-miR-3928-5p]
[1]
  one-nucleolus phenotype percent effect: 20.8%
[2]
  percent viability: 23.8%
[3]
  5+ nucleoli phenotype percent effect: -19.2%

## UGAAGCUCUGACAUUCCUGCAG [hsa-miR-6806-3p]
[1]
  one-nucleolus phenotype percent effect: 15.3%
[2]
  percent viability: 26.6%
[3]
  5+ nucleoli phenotype percent effect: -18.7%

## UGAAGUACCAGCUACUCGAGAG [hsa-miR-5585-5p]
[1]
  one-nucleolus phenotype percent effect: -3.33%
[2]
  percent viability: 36.7%
[3]
  5+ nucleoli phenotype percent effect: -8.83%

## UGAAGUUACAUCAUGGUCGCUU [hsa-miR-4670-3p]
[1]
  one-nucleolus phenotype percent effect: 2.16%
[2]
  percent viability: 36.1%
[3]
  5+ nucleoli phenotype percent effect: -11.4%

## UGACAACUAUGGAUGAGCUCU [hsa-miR-549a]
[1]
  one-nucleolus phenotype percent effect: -18.5%
[2]
  percent viability: 77.8%
[3]
  5+ nucleoli phenotype percent effect: 15.5%

## UGACACGGAGGGUGGCUUGGGAA [hsa-miR-4462]
[1]
  one-nucleolus phenotype percent effect: -18.7%
[2]
  percent viability: 82.7%
[3]
  5+ nucleoli phenotype percent effect: 14.9%

## UGACAGCGCCCUGCCUGGCUC [hsa-miR-2277-3p]
[1]
  one-nucleolus phenotype percent effect: 2.24%
[2]
  percent viability: 79%
[3]
  5+ nucleoli phenotype percent effect: -19.4%

## UGACCCACCCCUCUCCACCAG [hsa-miR-7114-3p]
[1]
  one-nucleolus phenotype percent effect: 6.96%
[2]
  percent viability: 35.3%
[3]
  5+ nucleoli phenotype percent effect: -4.79%

## UGACCCCCAUGUCGCCUCUGUAG [hsa-miR-6859-3p]
[1]
  one-nucleolus phenotype percent effect: 2.24%
[2]
  percent viability: 45%
[3]
  5+ nucleoli phenotype percent effect: -21.2%

## UGACCCCUUCUGUCUCCCUAG [hsa-miR-6846-3p]
[1]
  one-nucleolus phenotype percent effect: -13.6%
[2]
  percent viability: 47.5%
[3]
  5+ nucleoli phenotype percent effect: 10.3%

## UGACCGAUUUCUCCUGGUGUUC [hsa-miR-29c-5p]
[1]
  one-nucleolus phenotype percent effect: 21.1%
[2]
  percent viability: 105%
[3]
  5+ nucleoli phenotype percent effect: -8.5%

## UGACCUCUCCGCUCCGCACAG [hsa-miR-6821-3p]
[1]
  one-nucleolus phenotype percent effect: 7.28%
[2]
  percent viability: 38.9%
[3]
  5+ nucleoli phenotype percent effect: -22.7%

## UGACCUGGGACUCGGACAGCUG [hsa-miR-3661]
[1]
  one-nucleolus phenotype percent effect: 35.2%
[2]
  percent viability: 31.7%
[3]
  5+ nucleoli phenotype percent effect: -25.2%
